{"source": "paper PMC3428855", "target": "GST coupled TRPM8 N terminal fragment (1~691) (UniProt Q7Z2W7)", "sequence (Q7Z2W7 1-691)": "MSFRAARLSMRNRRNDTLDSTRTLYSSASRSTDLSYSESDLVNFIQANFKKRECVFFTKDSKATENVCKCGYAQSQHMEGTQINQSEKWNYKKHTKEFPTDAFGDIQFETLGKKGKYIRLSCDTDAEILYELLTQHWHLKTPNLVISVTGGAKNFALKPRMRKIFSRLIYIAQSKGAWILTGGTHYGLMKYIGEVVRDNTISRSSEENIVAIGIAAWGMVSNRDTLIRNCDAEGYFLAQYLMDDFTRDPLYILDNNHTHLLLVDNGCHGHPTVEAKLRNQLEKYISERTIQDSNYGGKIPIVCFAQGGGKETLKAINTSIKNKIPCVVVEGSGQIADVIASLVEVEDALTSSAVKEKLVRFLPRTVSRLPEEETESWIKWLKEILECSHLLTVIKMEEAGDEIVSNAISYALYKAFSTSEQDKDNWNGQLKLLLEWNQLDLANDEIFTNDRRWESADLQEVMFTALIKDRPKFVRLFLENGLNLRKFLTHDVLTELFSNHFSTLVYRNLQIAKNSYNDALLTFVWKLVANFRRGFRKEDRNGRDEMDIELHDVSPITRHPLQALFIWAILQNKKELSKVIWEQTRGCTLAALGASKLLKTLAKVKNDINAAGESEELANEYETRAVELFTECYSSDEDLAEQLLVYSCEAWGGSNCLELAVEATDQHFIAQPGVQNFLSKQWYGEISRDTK", "test": "pull-down"}
{"substance": "Gαq (wild type) (from UniProt P50148 1-359) (natural protein)", "values": [{"measurement": "fold Gαq bound relative to TRPM8 C terminal", "value": 1.28, "unit": "fold"}]}
